# In patent US5811393A (The Childrens Medical Center Corp., priority 1993, dated 1998):
# Tests used:
# [1] = tested on: bovine capillary endothelial cells; test: Proliferation / DNA synthesis of bovine capillary endothelial cells; format: cell-based; details: purified form
# Description: (§1) Conditioned medium was assayed for growth factor activity directly, as described below, using either fibroblasts (i.e., BALB/c mouse 3T3 cells), epithelial cells (i.e., human keratinocytes), or smooth muscle cells (i.e., bovine aortic smooth muscle cells, BASMC). Alternatively, CM was first fractionated by fast protein liquid chromatography (FPLC, Pharmacia, Piscataway, N.J.) by applying 500 ml of the CM to a TSK-heparin 5PW column (8×75 mm, TOSOHAAS, Philadelphia, Pa.). The column was washed with 10 column volumes of equilibration buffer (0.2M NaCl, 0.01M Tris-HCl, pH 7.5), and bound protein was eluted with a 40 ml linear gradient of 0.2-2M NaCl in 0.01M Tris-HCl , pH 7.4 at 1 ml/min. Fractions (2.5 ml) were tested for growth factor activity by measuring the effect of aliquots of the fractions on DNA synthesis in, or the proliferation of, BALB/c mouse 3T3 cells; such activity was monitored by assaying the incorporation of [^3 H]-thymidine into DNA and/or by measuring the increase in cell number. Measurement of DNA synthesis in BALB/c mouse 3T3 cells was performed as described by Shing et al. (223 Science 1296, 1984, hereby incorporated by reference). One unit of BALB/c mouse 3T3 stimulation activity was defined as the amount of growth factor required to stimulate half-maximal DNA synthesis in BALB/c mouse 3T3 cells under the conditions described in Shing et al. (supra). […]
# [2] = tested on: EGF receptors on BASMC; test: Competitive [125I]EGF binding to bovine aortic smooth muscle cells
# Description: Competitive binding assays were used to measure this interaction and were performed as follows.
# [3] = Stability of growth-stimulatory activity to acid, heat and DTT (read out in BALB/c 3T3 [3H]-thymidine assay); format: physicochemical
# Description: as §1, with “(supra). To measure DNA synthesis in bovine capillary endothelial cells, cells were trypsinized and re-plated sparsely (1×10^4 cells/well) with 400 μl of Dulbecco's modified Eagle's medium (DMEM, GIBCO, Grand Island, N.Y.) supplemented with 10% bovine calf serum (GIBCO, Grand Island, N.Y.) and antibiotics (100 units/ml penicillin and 100 μg/ml streptomycin sulfate, GIBCO, Grand Island, N.Y.) in 48-well plates (Costar, Cambridge, Mass.). After 24 hours of incubation, the medium was replaced with the same volume of DMEM supplemented with 2% bovine calf serum, antibiotics, 1 μM thymidine and 0.5% bovine serum albumin. After 24 hours of incubation, the test samples were added to the wells. Eighteen hours later, [^3 H]-thymidine (0.6 uCi/well, New England Nuclear, Wilmington, Del.) was added. After an additional 5 hours, each plate was treated by the same procedure as used to harvest the BALB/c mouse 3T3 cells to measure the incorporation of [^3 H]-thymidine into the DNA of the cells. To measure DNA synthesis in bovine aortic smooth muscle cells (from Dr. H. Weich, Children's Hospital, Boston), the cells were trypsinized and re-plated sparsely (1×10^4 cells/well) with 400 μl of DMEM supplemented with 10% Colorado calf serum (Colorado Serum Company) and antibiotics (100 units/ml penicillin and 100 μg/ml streptomycin sulfate, GIBCO, Grand Island, N.Y.) in 48-well plates.” for “(supra).”
molecule,measurement,setting,value
"HB-EHM: novel heparin binding growth factor with EGF-homologous segment, purified from U-937 lymphoma cell conditioned medium, about 22 kD (protein, O-linked glycosylation (suggested by O-glycanase treatment; the threonines predicted at positions 2 and 12 of the form first sequenced were not detected in protein sequencing)) RVTLSSKPQALATPNKEEHGKRKKKGKGLGKKRDPCLRKYKDFCIHGECKYVKELRAPSCICHPGYHGERCHGLS",proliferation of bovine capillary endothelial cells,[1],did not stimulate proliferation
same,50% inhibition of [125I]EGF binding,"[2]; BASMC, 6-well plates",63 pg/mL
same,binding to EGF receptors on SMC,[2]; purified HB-EHM,found to bind
same,growth-stimulatory activity after exposure to DTT,"[3]; 5 mM DTT for 2 hours, 3T3 [3H]-thymidine readout",destroyed completely
same,activity after acid treatment with glycine-HCl,"[3]; 0.1M glycine-HCl, pH 2.5 for 2 hours",not lost
same,growth-stimulatory activity after heating,"[3]; 90° C. for 5 minutes, 3T3 [3H]-thymidine readout",not destroyed
same,growth-stimulatory activity after exposure to pH 2.5,"[3]; pH 2.5 for 2 hours, 3T3 [3H]-thymidine readout",resistant
